Assay results published in article PMC2572730, “Structural Basis for the Recognition of Histone H4 by the Histone-Chaperone RbAp46” (Structure(London, England:1993), 2008).

Legend:
RbAp46 [1] = target: T1, RbAp46 (Homo sapiens, UniProt Q16576); test: Reciprocal pull-down of 35S-labeled RbAp46 with GST-histone H4 (1–48) mutants; format: binding; details: autoradiogram, 300 mM NaCl, 20 mM Tris pH 8.0, 5 mM DTT, 0.1% (v/v) NP-40
T1 construct: His-tag (cleaved yes); made in house; host or cells: insect cells (baculovirus)
Source text: Figure 2 Histone H4 Recognition by the RbAp46-Binding Pocket (A) Electrostatic surface potential of RbAp46 contoured and color coded at −91 kT (red) and +91 kT (blue). […] The histone H4 peptide is shown as a stick model. The histone H4-binding pocket in RbAp46 is mainly formed by the negatively charged PP loop (which terminates in Pro-362 and Pro-363) and a hydrophobic surface on the N-terminal α helix (helix 1). The interaction of histone H4 residues (Gln-27, Lys-31, Ile-34, Arg-35, Arg-36, Leu-37, Arg-39, and Arg-40) is shown. (B) Detailed view showing the interactions of the hydrophobic Ile-34 and Leu-37 histone H4 residues with Phe-29 and Leu-30 in helix 1 of RbAp46, as well as the positively charged Arg-36, Arg-39, and Arg-40 histone H4 residues with the backbone carbonyl groups in the PP loop and a cluster of acidic residues (Glu-356, Asp-357, and Asp-360) in RbAp46. […] In each experiment, the input lane contains 30% of the ^35S-labeled RbAp46 protein used in each of the pull-down assays. The experiments were carried out in 300 mM NaCl, 20 mM Tris (pH 8.0), 5 mM DTT, and 0.1% (v/v) NP-40.
Recombinant histone H4 and RbAp46 proteins were expressed and purified as described previously ([Verreault et al., 1998; Berger et al., 2004]). Detailed procedures for the generation of the RbAp46/histone H4 peptide and recombinant histone H4 complexes can be found in the Supplemental Data. Recombinant full-length (Xenopus lavis) histones H3 and H4 were expressed, purified, and refolded as described ([Luger et al., 1997]). For the binding experiments, histones H3/H4 and lysozyme (Sigma) were crosslinked to DynaBeads (Dynal Biotech) according to the manufacturer's recommendations. RbAp46 and histone H4 mutants were generated by using the QuikChange Site-Directed Mutagenesis kit (Stratagene). The RbAp46 mutants were expressed by using a Rabbit Reticulocyte Cell Free system (Promega).

RbAp46 [2] = target: T1, RbAp46; test: BS3 chemical crosslinking with RbAp46; format: binding; details: BS3 crosslinker; 1.1 M NaCl, 20 mM HEPES pH 7.5, 10 mM DTT; ∼10 μM protein; room temperature 30 min; NuPAGE, Coomassie and anti-H3/anti-H4 immunoblot
Source text: Figure 4 Interaction of Histones H3 and H4 with RbAp46 (A) Comparison of chemical crosslinking of histones H3 and H4 in the absence and presence of RbAp46. Three different 4%–12% NuPAGE gels were either (i) stained with Coomasie blue or blotted with (ii) anti-histone H4 or (iii) anti-histone H3 antibodies. By themselves, histones H3 and H4 appear to form a H3/H4 heterodimer (∼25 kDa), an H3_2 homodimer (∼30 kDa), and an H3_2/H4_2 heterotetramer (∼50 kDa), indicated by arrowheads. In the presence of RbAp46, two bands, which both contain histones H3 and H4 (also indicated by arrowheads), can be seen in positions roughly corresponding to the interaction of RbAp46 with histone H3/H4 dimers and tetramers (∼65–75 kDa). […] The fractions were collected and analyzed on 4%–12% NuPAGE gels.
RbAp46/H3/H4 crosslinking was performed by using the BS^3 crosslinker (Pierce) in 1.1 M NaCl, 20 mM HEPES (pH 7.5), and 10 mM DTT. Freshly prepared BS^3 stock solution, 3% (w/v), was diluted 1/5, 1/10, 1/20, 1/50, and 1/100 with distilled water, and 1 μl of the resulting solution was mixed with 10 μl of ∼10 μM RbAp46, recombinant histone H3/H4, or RbAp46/H3/H4 prior to incubation at room temperature for 30 min. […] The proteins were analyzed on separate 4%–12% NuPAGE gels, one for Coomassie blue staining and one for each Western blot with either anti-histone H3 (Abcam) or anti-histone H4 (A.V.) antibodies.

RbAp46 or RbAp48 = details: ref Verreault et al., 1998; cited from earlier work

T1 sequence (Q16576 whole entry): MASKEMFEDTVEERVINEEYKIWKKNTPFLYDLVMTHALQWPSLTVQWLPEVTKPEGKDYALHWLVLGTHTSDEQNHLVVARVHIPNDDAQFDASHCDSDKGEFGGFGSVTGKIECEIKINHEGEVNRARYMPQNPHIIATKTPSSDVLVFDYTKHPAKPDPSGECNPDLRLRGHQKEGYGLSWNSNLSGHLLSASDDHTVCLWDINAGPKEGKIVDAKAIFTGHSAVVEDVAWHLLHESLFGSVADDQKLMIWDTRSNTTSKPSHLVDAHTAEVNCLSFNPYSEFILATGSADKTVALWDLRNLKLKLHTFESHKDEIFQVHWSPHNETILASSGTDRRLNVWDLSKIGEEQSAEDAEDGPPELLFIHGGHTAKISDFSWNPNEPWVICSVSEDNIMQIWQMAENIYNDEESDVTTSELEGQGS

Substance | Effect of histone H4 mutation on binding to RbAp46 (RbAp46 [1]) | other results
I34T + L37D + R35S: GST-histone H4 (1–48) mutated in residues interacting with both helix 1 and the charged PP loop | disrupt the binding | 
L37D + R39V + R40N: GST-histone H4 (1–48) mutated in residues interacting with both helix 1 and the charged PP loop | disrupt the binding | 
R39V + R40N: GST-histone H4 (1–48) mutated in residues interacting with the charged PP loop | disrupt the binding | 
lysozyme: positively charged lysozyme protein (Sigma), negative control |  | Crosslinked species with RbAp46 (RbAp46 [2]): no crosslinked species
residues 15–41 of histone H4: residues 15–41 of histone H4, sufficient for recognition by RbAp46 or RbAp48 (earlier studies) |  | Recognition by RbAp46 or RbAp48 (RbAp46 or RbAp48): sufficient for recognition by either RbAp46 or RbAp48
